Experimental data published in paper PMC6042327 (BMC Biology, 2018).
Changes are numbered by the printed parent chain. In names and notes the source's numbering stands.

B1: SGTA NT-TPR (1-213) (domain or fragment, human, UniProt O43765 1-213, looked up)
chain: MDNKKRLAYAIIQFLHDQLRHGGLSSDAQESLEVAIQCLETAFGVTVEDSDLALPQTLPEIFEAAATGKEMPQDLRSPARTPPSEEDSAEAERLKTEGNEQMKVENFEAAVHFYGKAIELNPANAVYFCNRAAAYSKLGNYAGAVQDCERAICIDPAYSKAYGRMGLALSSLNKHVEAVAYYKKALELDPDNETYKSNLKIAELKLREAPSPT
notes: SGTA, human, residues 1-213 (N-terminal dimerisation domain and TPR domain); also called version lacking the C-terminal domain; not shown: thioredoxin A, N-terminal, cleaved; His6, N-terminal, cleaved
B2: SGTA C-terminal domain (CT; residues 213-313) (domain or fragment, human, UniProt O43765 213-313, looked up)
chain: TGGVGSFDIAGLLNNPGFMSMASNLMNNPQIQQLMSGMISGGNNPLGTPGTSPSQNDLASLIQAGQQFAQQMQQQNPELIEQLRSQIRSRTPSASNDDQQE
notes: small glutamine-rich tetratricopeptide repeat-containing protein alpha (SGTA), human, residues 213-313 (complete C-terminal domain); also called C-terminal domain of SGTA; not shown: thioredoxin A, N-terminal, cleaved; His6, N-terminal, cleaved
B3: SGTA NT-TPR S88C single-cysteine mutant, MTSL spin-labelled (domain or fragment, human, UniProt O43765 1-213, looked up)
chain: B1 chain with C38S, S88C, C129S, C148S, C153S
modifications: MTSL spin label on cysteine 88
notes: SGTA, human, residues 1-213; all four wild-type cysteines changed to serine, then S88C; also called C-terminal deletion mutant S88C; source: E. coli, prepared in the same way as the wild-type versions, MTSL spin-labelled, size-exclusion chromatography; not shown: thioredoxin A, N-terminal, cleaved; His6, N-terminal, cleaved
B4: SGTA NT-TPR C153 single-cysteine variant, MTSL spin-labelled (domain or fragment, human, UniProt O43765 1-213, looked up)
chain: B1 chain with C38S, C129S, C148S
modifications: MTSL spin label on cysteine 153
notes: SGTA, human, residues 1-213; the other three wild-type cysteines changed to serine, wild-type C153 kept; also called C-terminal deletion mutant C153; source: E. coli, prepared in the same way as the wild-type versions, MTSL spin-labelled, size-exclusion chromatography; not shown: thioredoxin A, N-terminal, cleaved; His6, N-terminal, cleaved
B5: SGTA NT-TPR S197C single-cysteine mutant, MTSL spin-labelled (domain or fragment, human, UniProt O43765 1-213, looked up)
chain: B1 chain with C38S, C129S, C148S, C153S, S197C
modifications: MTSL spin label on cysteine 197
notes: SGTA, human, residues 1-213; all four wild-type cysteines changed to serine, then S197C; also called C-terminal deletion mutant S197C; source: E. coli, prepared in the same way as the wild-type versions, MTSL spin-labelled, size-exclusion chromatography; not shown: thioredoxin A, N-terminal, cleaved; His6, N-terminal, cleaved
B6: SGTA NT-TPR S136C single-cysteine mutant, MTSL spin-labelled (domain or fragment, human, UniProt O43765 1-213, looked up)
chain: B1 chain with C38S, C129S, S136C, C148S, C153S
modifications: MTSL spin label on cysteine 136
notes: SGTA, human, residues 1-213; all four wild-type cysteines changed to serine, then S136C; also called C-terminal deletion mutant S136C; source: E. coli, prepared in the same way as the wild-type versions, MTSL spin-labelled, size-exclusion chromatography; not shown: thioredoxin A, N-terminal, cleaved; His6, N-terminal, cleaved
B7: FL SGTA C153 single-cysteine variant, MTSL spin-labelled (natural protein, human, UniProt O43765 1-313, looked up)
chain: MDNKKRLAYAIIQFLHDQLRHGGLSSDAQESLEVAIQSLETAFGVTVEDSDLALPQTLPEIFEAAATGKEMPQDLRSPARTPPSEEDSAEAERLKTEGNEQMKVENFEAAVHFYGKAIELNPANAVYFSNRAAAYSKLGNYAGAVQDSERAICIDPAYSKAYGRMGLALSSLNKHVEAVAYYKKALELDPDNETYKSNLKIAELKLREAPSPTGGVGSFDIAGLLNNPGFMSMASNLMNNPQIQQLMSGMISGGNNPLGTPGTSPSQNDLASLIQAGQQFAQQMQQQNPELIEQLRSQIRSRTPSASNDDQQE
modifications: MTSL spin label on cysteine 153
notes: SGTA, human, residues 1-313; the other three wild-type cysteines changed to serine, wild-type C153 kept; source: E. coli, prepared in the same way as the wild-type versions, MTSL spin-labelled, size-exclusion chromatography; not shown: thioredoxin A, N-terminal, cleaved; His6, N-terminal, cleaved
B8: FL SGTA S136C single-cysteine mutant, MTSL spin-labelled (natural protein, human, UniProt O43765 1-313, looked up)
chain: B7 chain with S136C, C153S
modifications: MTSL spin label on cysteine 136
notes: SGTA, human, residues 1-313; all four wild-type cysteines changed to serine, then S136C; source: E. coli, prepared in the same way as the wild-type versions, MTSL spin-labelled, size-exclusion chromatography; not shown: thioredoxin A, N-terminal, cleaved; His6, N-terminal, cleaved
B9: FL SGTA S88C single-cysteine mutant, MTSL spin-labelled (natural protein, human, UniProt O43765 1-313, looked up)
chain: B7 chain with S88C, C153S
modifications: MTSL spin label on cysteine 88
notes: SGTA, human, residues 1-313; all four wild-type cysteines changed to serine, then S88C; source: E. coli, prepared in the same way as the wild-type versions, MTSL spin-labelled, size-exclusion chromatography; not shown: thioredoxin A, N-terminal, cleaved; His6, N-terminal, cleaved
B10: FL SGTA S197C single-cysteine mutant, MTSL spin-labelled (natural protein, human, UniProt O43765 1-313, looked up)
chain: B7 chain with C153S, S197C
modifications: MTSL spin label on cysteine 197
notes: SGTA, human, residues 1-313; all four wild-type cysteines changed to serine, then S197C; source: E. coli, prepared in the same way as the wild-type versions, MTSL spin-labelled, size-exclusion chromatography; not shown: thioredoxin A, N-terminal, cleaved; His6, N-terminal, cleaved

Molecular target: the molecule itself
Assay: native MS; protein 5-10 uM in 0.20-0.75 M ammonium acetate pH 7.0, electrosprayed, source temperature 20 °C; self-association (monomer to dimer)

B1 was tested. Which “stoichiometry N” value did it give?
The value was 2.

With B2 as the protein, how does the “stoichiometry N” value read?
The value was 2.

Molecular target: the molecule itself
Assay: DEER (EPR) spectroscopy; MTSL spin label on a single cysteine; distances between homologous sites in each monomer; 300-500 uM, D2O buffer with 50% d8-glycerol, flash frozen, measured at 50 K

Does B3 bind?
Result: binds

Does B4 bind?
Result: binds

Does B5 bind?
Result: binds

Does B6 bind?
Result: binds

Does B7 bind?
Result: binds

Does B8 bind?
Result: binds

Does B9 bind?
Result: binds

Does B10 bind?
Result: binds
